Test results reported in patent US20070298041A1 (published 2007).

T1: human TNFR1 (biotinylated, immobilized on SPR chip) (human (Homo sapiens), UniProt P19438 30-211, biotinylated (site not stated))
T1 construct: also called hTNFR1
T1 sequence: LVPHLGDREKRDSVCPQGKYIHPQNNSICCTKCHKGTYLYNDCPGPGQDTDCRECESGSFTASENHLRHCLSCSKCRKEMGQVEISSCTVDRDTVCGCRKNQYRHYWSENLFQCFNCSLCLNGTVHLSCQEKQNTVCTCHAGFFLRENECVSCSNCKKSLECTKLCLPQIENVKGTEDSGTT

T2: mouse TNFR1 (biotinylated, immobilized on SPR chip) (mouse (Mus musculus), UniProt P25118 30-212, biotinylated (site not stated))
T2 construct: also called murine TNFR1; mTNFR1
T2 sequence: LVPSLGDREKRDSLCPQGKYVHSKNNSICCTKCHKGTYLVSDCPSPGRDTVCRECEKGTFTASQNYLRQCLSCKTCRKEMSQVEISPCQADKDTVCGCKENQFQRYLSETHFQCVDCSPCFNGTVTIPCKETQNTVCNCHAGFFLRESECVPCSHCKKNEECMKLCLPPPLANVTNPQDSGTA


Legend:
[1] = target: T1, human TNFR1 (biotinylated, immobilized …); experiment: SPR (BIACORE 3000), biotinylated human TNFR1 on streptavidin chip, competition with chimeric TNFR1 proteins
Protocol: (§1) If the dAb is pre-incubated and equilibrated with a chimeric molecule that comprises the domain(s) of TNFR1 that the particular dAb binds, then flow of this mixture over the TNFR1 surface will produce a smaller SPR signal relative to the dAb alone.
(§2) The choice of TNFR1 surface is determined by the species specificity of the anti-TNFR1 dAb to be tested. Therefore anti-human TNFR1 dAbs were evaluated using a surface coated with human TNFR1 and anti-mouse TNFR1 dAbs were evaluated using a chip coated with mouse TNFR1.
(§3) Biotinylated TNFR1 was diluted in the appropriate SPR buffer and run across a streptavidin (SA) sensor chip in a BIACORE 3000 SPR instrument (Biacore International AB, Uppsala, Sweden). A low flow-rate (5-10 μl/minute) was used in order to maximise the contact time between the biotinylated TNFR1 and the streptavidin surface. Flow continued until the streptavidin surface was saturated with biotinylated material, in order to generate a chip with maximal TNFR1 surface.

[2] = target: T2, mouse TNFR1 (biotinylated, immobilized …); experiment: SPR (BIACORE 3000), biotinylated mouse TNFR1 on streptavidin chip, competition with chimeric TNFR1 proteins
Protocol: as §1, §2, §3

binding result [1] | binding result [2] | Binder
binds | – | TAR2h-205 (other, Domain antibody (dAb), a single immunoglobulin VH variable domain; also called anti-human TNFR1 dAb) VH: EVQLLESGGGLVQPGGSLRLSCAASGFTFVKYSMGWVRQAPGKGLEWVSQISNTGGHTYYADSVKGRFTISRDNSKNTLYLQMNSLRAEDTAVYYCAKYTGRWEPFDYWGQGTLVTVSS
– | binds | TAR2m-21-23 (other, Domain antibody (dAb), a single immunoglobulin VH variable domain; also called anti-mouse TNFR1 dAb) VH: EVQLLESGGGLVQPGGSLRLSCAASGFTFNRYSMGWLRQAPGKGLEWVSRIDSYGRGTYYEDPVKGRFSISRDNSKNTLYLQMNSLRAEDTAVYYCAKISQFGSNAFDYWGQGTQVTVSS
